In patent US20190315842A1 (DUKE UNIVERSITY, published 2019):
Where no end group is shown, it is not given here. The star is where a group is joined. Biotin = O=C1N[C@H]2[C@H](CS[C@H]2CCCCC(=O)*)N1

T1: GPPPPIDNGDITSFP(GGGK-biotin)
T1 construct: also called biotinylated 15-mer peptide; biotinylated 19-mer
T1 peptide: GPPPPIDNGDITSFPGGGK(Biotin)

T2: centromere B (CentB) (UniProt P07199 2-599)
T2 sequence (looked up): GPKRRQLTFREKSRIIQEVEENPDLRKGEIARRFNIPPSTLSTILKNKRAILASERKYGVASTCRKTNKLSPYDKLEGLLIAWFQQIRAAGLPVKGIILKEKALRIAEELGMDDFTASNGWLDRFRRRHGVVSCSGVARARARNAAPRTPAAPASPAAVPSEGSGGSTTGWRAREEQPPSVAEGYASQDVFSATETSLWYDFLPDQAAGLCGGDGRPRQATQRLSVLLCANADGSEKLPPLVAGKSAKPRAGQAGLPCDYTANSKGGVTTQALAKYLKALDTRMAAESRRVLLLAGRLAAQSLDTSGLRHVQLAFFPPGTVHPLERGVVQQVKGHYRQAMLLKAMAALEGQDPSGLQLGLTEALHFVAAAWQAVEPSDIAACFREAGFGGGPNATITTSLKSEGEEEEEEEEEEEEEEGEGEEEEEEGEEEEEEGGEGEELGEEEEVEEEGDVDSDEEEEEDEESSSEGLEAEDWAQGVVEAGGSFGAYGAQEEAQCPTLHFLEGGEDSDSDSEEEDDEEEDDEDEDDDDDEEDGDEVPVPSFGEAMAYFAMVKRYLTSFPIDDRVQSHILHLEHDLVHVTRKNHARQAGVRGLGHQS

T3: 15-mer peptide GPPPPIDNGDITSFP (SEQ ID NO: 114) (human)
T3 construct: Immobilized for SPR; also called parent peptide
T3 peptide: GPPPPIDNGDITSFP

T4: histidine-tRNA ligase (Jo-1) (UniProt P12081 2-509)
T4 sequence (looked up): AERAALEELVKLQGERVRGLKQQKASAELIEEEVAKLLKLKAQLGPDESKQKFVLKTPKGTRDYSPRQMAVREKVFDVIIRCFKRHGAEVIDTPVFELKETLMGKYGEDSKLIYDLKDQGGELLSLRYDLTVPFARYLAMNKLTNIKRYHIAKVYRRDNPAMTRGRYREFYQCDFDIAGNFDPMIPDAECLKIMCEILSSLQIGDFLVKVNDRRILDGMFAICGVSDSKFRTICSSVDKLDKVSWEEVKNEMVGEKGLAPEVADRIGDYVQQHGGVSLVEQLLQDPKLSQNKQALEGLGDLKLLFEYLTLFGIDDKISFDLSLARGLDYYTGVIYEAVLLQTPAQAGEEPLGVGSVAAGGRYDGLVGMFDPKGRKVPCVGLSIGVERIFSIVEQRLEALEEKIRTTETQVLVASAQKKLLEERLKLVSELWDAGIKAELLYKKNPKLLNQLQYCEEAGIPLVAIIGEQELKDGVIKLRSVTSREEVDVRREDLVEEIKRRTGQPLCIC

T5: sclerosis autoantigen (Scl-70) (UniProt P11387 2-765, limits assumed)
T5 sequence (looked up): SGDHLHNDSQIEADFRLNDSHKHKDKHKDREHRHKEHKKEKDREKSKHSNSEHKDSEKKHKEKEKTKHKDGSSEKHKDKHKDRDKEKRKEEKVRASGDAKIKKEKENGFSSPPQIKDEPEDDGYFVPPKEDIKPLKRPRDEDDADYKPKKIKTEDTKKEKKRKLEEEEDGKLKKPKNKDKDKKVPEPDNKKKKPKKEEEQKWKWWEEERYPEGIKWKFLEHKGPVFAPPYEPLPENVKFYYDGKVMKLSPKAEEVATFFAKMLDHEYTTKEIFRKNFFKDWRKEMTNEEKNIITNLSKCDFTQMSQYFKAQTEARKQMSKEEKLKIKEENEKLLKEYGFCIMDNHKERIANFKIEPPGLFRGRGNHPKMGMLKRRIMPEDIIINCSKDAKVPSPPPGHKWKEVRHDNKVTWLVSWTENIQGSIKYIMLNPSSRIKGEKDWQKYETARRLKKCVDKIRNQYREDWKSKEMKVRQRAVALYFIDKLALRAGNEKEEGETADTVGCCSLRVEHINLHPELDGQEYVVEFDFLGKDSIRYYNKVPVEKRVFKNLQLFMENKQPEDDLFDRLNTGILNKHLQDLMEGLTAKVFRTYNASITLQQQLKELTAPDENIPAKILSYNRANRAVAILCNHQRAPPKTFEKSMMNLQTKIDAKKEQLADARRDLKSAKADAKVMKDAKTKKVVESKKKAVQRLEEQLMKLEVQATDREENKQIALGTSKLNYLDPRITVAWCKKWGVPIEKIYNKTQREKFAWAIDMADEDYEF

T6: systemic lupus erythematosus autoantigen SSB (UniProt P05455 1-408, limits assumed)
T6 sequence (looked up): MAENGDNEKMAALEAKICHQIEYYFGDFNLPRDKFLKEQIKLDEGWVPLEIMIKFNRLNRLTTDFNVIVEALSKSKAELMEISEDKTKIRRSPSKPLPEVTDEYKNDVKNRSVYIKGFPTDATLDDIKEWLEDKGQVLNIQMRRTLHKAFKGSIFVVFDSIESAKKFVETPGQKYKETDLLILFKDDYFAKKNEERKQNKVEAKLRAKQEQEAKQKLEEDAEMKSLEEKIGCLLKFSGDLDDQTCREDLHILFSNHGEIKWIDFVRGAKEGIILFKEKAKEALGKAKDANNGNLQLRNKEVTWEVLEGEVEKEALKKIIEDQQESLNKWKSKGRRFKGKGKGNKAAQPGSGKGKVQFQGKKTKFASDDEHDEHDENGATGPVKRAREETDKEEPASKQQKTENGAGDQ


How the values were obtained:
[1] = molecular target: T1, GPPPPIDNGDITSFP(GGGK-biotin); test: ELISA: biotinylated peptide captured on immobilized Neutravidin, antibody at 0.5 µg/ml, anti-human IgG-HRP/ABTS, OD 405 nm
Protocol: After washing, recombinant human monoclonal antibodies were added to the wells at 0.5 μg/ml and incubated for 2 hr at room temperature. The wells were washed and incubated with goat anti-human IgG-gamma horseradish peroxidase conjugate at a 1:1000 dilution. After further washing, bound antibody was detected with 2,2′-azino-bis (3-ethylbenzthiazoline-6-sulfonic acid)(ABTS)/hydrogen peroxide and the absorbance measured at 405 nm.

centromere B (CentB) [2] = molecular target: T2, centromere B (CentB); test: AtheNA Multi-Lyte ANA, Ab at 6.25 ug/ml;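 also: monoclonal antibodies screened for reactivity against a panel of nuclear autoantigens, with an anti-HIV and an anti-RSV monoclonal antibody serving as controls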
Protocol: (§1) All 7 mAbs were tested against the AtheNA Multi-Lyte panel of autoantigens. The AtheNA Multi-Lyte ANA test for a panel of nuclear antigens: systemic lupus erythematosus autoantigens SSA and SSB, sphingomyelin (Sm), ribonucleoprotein (RNP), sclerosis autoantigen (Scl-70), histidine-tRNA ligase (Jo-1), double-stranded DNA (dsDNA), centromere B (CentB), and histones. 4e10 (Anti HIV, NIH AIDS Reagent Program) and SYNAGIS® (anti-RSV monoclonal antibody palivizumab; “Synagis”) were used a controls.

[3] = molecular target: T3, 15-mer peptide GPPPPIDNGDITSFP (SEQ ID …); test: assay and antigen not given; Example 10, epitope mapping on the 15-mer peptide
ribonucleoprotein (RNP) = test: AtheNA Multi-Lyte ANA, Ab at 25 ug/ml
Protocol: as §1

[4] = molecular target: T4, histidine-tRNA ligase (Jo-1); test: AtheNA Multi-Lyte ANA, Ab at 25 ug/ml
Protocol: as §1

[5] = molecular target: T5, sclerosis autoantigen (Scl-70); test: AtheNA Multi-Lyte ANA, Ab at 25 ug/ml
Protocol: as §1

Sm (sphingomyelin) = molecular target: T7, Sm (sphingomyelin); test: AtheNA Multi-Lyte ANA, Ab at 25 ug/ml
T7 construct: in an ANA panel of nuclear antigens Sm is usually the Smith ribonucleoprotein antigen; Kept, but see recheck
Protocol: as §1

centromere B (CentB) [6] = molecular target: T2, centromere B (CentB); test: AtheNA Multi-Lyte ANA, Ab at 50 ug/ml;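 also: monoclonal antibodies probed against a nuclear autoantigen panel (SSA, SSB, Sm, RNP, Scl-70, Jo-1, dsDNA, CentB, histones), with anti-HIV 4E10 and palivizumab as control antibodies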
Protocol: as §1

[7] = molecular target: T6, systemic lupus erythematosus …; test: AtheNA Multi-Lyte ANA, Ab at 6.25 ug/ml;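 also: monoclonal antibodies screened for reactivity against a panel of nuclear autoantigens, with an anti-HIV and an anti-RSV monoclonal antibody serving as controls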
Protocol: as §1

| Binder | binding result [1] | AtheNA signal (centromere B (CentB) [2]) | EC50 [3] [ng/mL] | AtheNA signal (ribonucleoprotein (RNP)) | AtheNA signal [4] | AtheNA signal [5] | AtheNA signal (Sm (sphingomyelin)) | AtheNA signal (centromere B (CentB) [6]) | AtheNA signal [7] |
| --- | --- | --- | --- | --- | --- | --- | --- | --- | --- |
| Ab7957/293i (antibody, IgG1, V domains shown, Recombinant human antibody with IgG1 heavy chain backbone and kappa light chain constant; they begin at LVESGGG and MTQSP; also called Ab7957i; mAb 7957) VH: LVESGGGVVPPGKSLRLSCAASGFTFSLYGIHWVRQAPGKGLEWVAVISYDGNTKYYTDSVKGRFTISRDNAKNTIYLQMNSLRLDDTAVYYCAKGAANSATFDFWGRGTMVTVSS VL: MTQSPDSLTLSLGERATINCRSSRTVLYRSNNKNYLAWYQHKPGQPPKLLMSWASTRETGVPDRFSGSGSGTHFTLTITSLQPEDVAVYYCQQYYSPPWTFGQGTKVEIR | binds | 2 | 9.08 | 4 | 4 | 2 | 3 | 4 | – |
| Ab7968 (antibody, IgG1, V domains shown, Recombinant human antibody with IgG1 heavy chain backbone and kappa light chain constant; they begin at LVESGGG and MTQSP; also called mAb 7968; mAb7968) VH: LVESGGGVVQPGRSLRLSCAASGFTFSRYGMHWVRQAPGKGLEWVAVMSYDGSTKYYADSVKGRFAISRDNPKNTLFLQMNSLRPDDTAVYYCAKGGAAAAVMDVWGKGTTVTVSS VL: MTQSPDSLTVSLGERATISCKSSQRLLYSSNNKNYLAWYQQKPGQPPKLLMYWASTRESGVPDRFSGSGSGTDFSLTISSLQAEDVAVYYCQQYYNPPWTFGQGTKVEVK | binds | – | 7.98 | 8 | 3 | 3 | 5 | – | 7 |
| Ab7962/293i (antibody, V domains shown, Recombinant human antibody with IgG1 heavy chain backbone and kappa light chain constant (IgM in the donor B cell); they begin at LVESGGG and MTQSL; also called clone 27; pH007962/pK005996) VH: LVESGGGLVQPGGSLRLSCAASGFTFSSYEMNWVRQAPGKGLEWVSYISSSGSTIYYADSVKGRFTISRDNAKNSLYLQMNSLRAEDTAVYYCARVEQLAPSPYMDVWGKGTTVTVSS VL: MTQSLDSLTVSLGERATINCKSSQSLLYTSNNKNYLAWYQQKSGQPPKLLIYWASIRDSGVPDRFSGSGSATDFTLTINNLQAEDVAVYFCQQYYKTPLTFGGGTKVEVR | – | 1 | – | – | – | – | – | 3 | 1 |
